Measurements published in patent US20040138431A1 (Genentech, published 2004).

Molecular target: trkB with a gD tag expressed on CHO cells
Assay: cell-based or functional assay

B1: recombinant human NT-4/5 (rhNT-4/5), correctly folded, intact, purified from E. coli (ligand)
chain: GVSETAPASRRGELAVCDAVSGWVTDRRTAVDLRGREVEVLGEVPAAGGSPLRQYFFETRCKADNAEEGGPGAGGGGCRGVDRRHWVSECKAKQSYVRALTAHAQGRVGWRWIRIDTACVCTLLSRTGRA
EC50, kinase receptor activation (KIRA) assay: 0.0126 mg/L
